This is an account of results in publication PMC4405695, “The Rab6-regulated KIF1C kinesin motor domain contributes to Golgi organization” (eLife, 2015).

Assay [1] addresses T1, Paclitaxel stabilized pre-polymerized microtubules (UniProt Q71U36 1-451; P07437 1-444, Paclitaxel-stabilized polymer, polymerized with GTP. One alpha/beta heterodimer represents the repeating unit. Source and isotypes are not given; mammalian (likely porcine) brain tubulin, a natural). The experiment in a line: co-sedimentation; KIF1C-355-His (80 nM) with His-Rab6A Q72L (4.86 µM) or BSA (7.6 µM), then increasing microtubules, 2.6 mM AMP-PNP, 0.35 mM GTPγS; BRB80. Particulars: both partners purified.

The target of assay [2] is T1, Paclitaxel stabilized pre-polymerized …. Kind of assay: co-sedimentation; KIF1C-355-His (160 nM) with His-Rab6A Q72L, His-Rab33 or BSA (3.42 µM), then increasing microtubules, 2.6 mM ADP, 0.35 mM GTPγS; BRB80. Particulars: both partners purified.
A further assay deals with T2, myc-KIF1C-350 (human, UniProt O43896 1-350).
T2 construct: KIF1C, human, N-terminal motor domain, residues 1-350; also called myc-KIF1C motor domain; in vitro translated KIF1C motor domain; source: in vitro translated
T2 sequence (looked up): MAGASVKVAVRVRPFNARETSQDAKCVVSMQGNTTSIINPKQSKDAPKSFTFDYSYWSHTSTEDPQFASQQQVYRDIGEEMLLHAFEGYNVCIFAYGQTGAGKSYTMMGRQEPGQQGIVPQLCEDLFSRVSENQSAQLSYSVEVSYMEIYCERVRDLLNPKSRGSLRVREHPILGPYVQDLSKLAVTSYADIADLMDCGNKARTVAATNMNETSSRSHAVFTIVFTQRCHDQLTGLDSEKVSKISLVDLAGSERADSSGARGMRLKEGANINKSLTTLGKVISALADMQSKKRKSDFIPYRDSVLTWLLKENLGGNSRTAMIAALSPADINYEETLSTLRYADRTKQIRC
Kind of assay: pull-down; concentration dependence: in vitro translated myc-KIF1C-350 with GTPγS-loaded GST-Rab6A Q72L; apparent KD; fit with KaleidaGraph. The note with it: one partner purified.

The next assay concerns the target T3, His-Rab6A Q72L (UniProt P20340 1-208, Q72L).
T3 construct: Rab6A GTPase, GTP-hydrolysis deficient mutant; also called active His-Rab6A; source: purified as described (Aivazian et al., 2006)
Kind of assay: pull-down; concentration dependence: GTPγS-loaded His-Rab6A Q72L (0.58 μM) with GST-KIF1C CBD immobilized on glutathione Sepharose; quantitative fluorescent antibody immunoblot; fit with GraphPad Prism. Particulars: both partners purified. (In western blotting, separated proteins are transferred to a membrane and probed.)

B1: KIF1C-355-His (domain or fragment)
chain: MAGASVKVAVRVRPFNARETSQDAKCVVSMQGNTTSIINPKQSKDAPKSFTFDYSYWSHTSTEDPQFASQQQVYRDIGEEMLLHAFEGYNVCIFAYGQTGAGKSYTMMGRQEPGQQGIVPQLCEDLFSRVSENQSAQLSYSVEVSYMEIYCERVRDLLNPKSRGSLRVREHPILGPYVQDLSKLAVTSYADIADLMDCGNKARTVAATNMNETSSRSHAVFTIVFTQRCHDQLTGLDSEKVSKISLVDLAGSERADSSGARGMRLKEGANINKSLTTLGKVISALADMQSKKRKSDFIPYRDSVLTWLLKENLGGNSRTAMIAALSPADINYEETLSTLRYADRTKQIRNTVSVN
notes: KIF1C, human, motor domain residues 1-349; KIF5C heavy chain, murine, residues 329-334; Design follows Nitta et al., 2004 for KIF1A; also called recombinant KIF1C motor domain; purified KIF1C motor domain; source: E. coli Rosetta 2, purified (Ni-NTA, HiTrap Q FF); not shown: His6, C-terminal, kept
For B1, in assay [1], the Kd stood at 460 nM and the “fold increase of KD with His-Rab6A (AMP-PNP state)” value was more than 10 fold. Besides, in assay [2], the Kd was 2100 nM and the “fold increase of KD with His-Rab6A (ADP state)” value was more than 10 fold.

B2: GST-Rab6A Q72L (natural protein, UniProt P20340 1-208, looked up)
chain: MSTGGDFGNPLRKFKLVFLGEQSVGKTSLITRFMYDSFDNTYQATIGIDFLSKTMYLEDRTVRLQLWDTAGLERFRSLIPSYIRDSTVAVVVYDITNVNSFQQTTKWIDDVRTERGSDVIIMLVGNKTDLADKRQVSIEEGERKAKELNVMFIETSAKAGYNVKQLFRRVAAALPGMESTQDRSREDMIDIKLEKPQEQPVSEGGCSC
notes: Rab6A GTPase, GTP-hydrolysis deficient mutant; GTPγS-loaded; also called active Rab6A hydrolysis-deficient mutant; source: purified as described (Aivazian et al., 2006)
As to B2, in the assay with myc-KIF1C-350, the Kd was determined as 230 nM.

B3: GST-KIF1C CBD (domain or fragment, human, UniProt O43896 1060-1103, looked up)
chain: SYPQPPQPYPAQRPPGPRYPPYTTPPRMRRQRSAPDLKESGAAV
notes: the text calls it the C-terminal 40 amino acids; Text says 40 C-terminal residues, the legend AA 1060-1103 (44 residues); source: bacteria, purified (glutathione-Sepharose)
As to B3, in the assay with His-Rab6A Q72L, the Kd was 900 nM.
